Source: US20220204611A1 (Amgen, published 2022)

T1: recombinant soluble human TREM2 protein (human TREM2 ECD-FlagHis) (human, UniProt Q9NZC2 19-174)
T1 sequence: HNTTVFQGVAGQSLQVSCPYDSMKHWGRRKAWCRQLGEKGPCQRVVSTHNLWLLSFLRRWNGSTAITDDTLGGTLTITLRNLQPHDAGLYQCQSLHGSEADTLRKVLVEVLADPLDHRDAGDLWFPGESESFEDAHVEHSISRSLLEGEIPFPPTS

T2: human TREM2 on cells (human, UniProt Q9NZC2 19-230)
T2 sequence: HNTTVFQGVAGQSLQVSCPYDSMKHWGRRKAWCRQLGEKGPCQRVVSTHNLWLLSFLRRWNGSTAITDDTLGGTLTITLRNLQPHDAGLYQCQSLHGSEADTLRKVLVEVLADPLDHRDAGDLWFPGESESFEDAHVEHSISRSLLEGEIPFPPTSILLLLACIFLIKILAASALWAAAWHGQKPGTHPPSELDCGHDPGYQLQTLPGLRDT

T3: soluble human TREM2 protein (TREM2 ECD-huIgG1 Fc fusion protein) (human, UniProt Q9NZC2 19-174, biotinylated)
T3 construct: also called biotinylated soluble human TREM2 protein
T3 sequence: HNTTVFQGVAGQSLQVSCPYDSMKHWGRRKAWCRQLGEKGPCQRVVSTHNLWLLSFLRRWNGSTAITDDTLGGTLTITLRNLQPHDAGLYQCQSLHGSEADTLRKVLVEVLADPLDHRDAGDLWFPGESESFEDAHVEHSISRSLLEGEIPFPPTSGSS


Legend:
[1] = biological target: T1, recombinant soluble human TREM2 protein …; test: Octet BLI binning; competitor: load Ab 24G6
In short: (§1)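 Load antibody captured on anti-human Fc sensors at 5 μg/mL for 2 min, then blocked with 100 μg/mL irrelevant human IgG2 for 5 min. Sandwich antibodies were added at 5 μg/mL for 5 min in 10 mM Tris pH 7.6, 0.1% Triton X-100, 150 mM NaCl, 1 mM CaCl₂, 1 mg/mL BSA, 25° C.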

[2] = biological target: T1, recombinant soluble human TREM2 protein …; test: Octet BLI binning; competitor: load Ab 25F12
In short: as §1

[3] = biological target: T1, recombinant soluble human TREM2 protein …; test: Octet BLI binning; competitor: load Ab 33B12
Procedure: (§2) Each of sixteen different anti-TREM2 antibodies produced from hybridomas were quantitated and loaded onto one of the anti-human Fc sensors at 5 μg/mL for 2 minutes (“Load Antibody”). The sensor was then blocked with 100 μg/mL of an irrelevant human IgG2 antibody for 5 minutes. […] Next, each of the sixteen different anti-TREM2 antibodies (“Sandwich Antibody”) was added to the sensor at 5 μg/mL and allowed to bind for 5 minutes. All assay buffers contained 10 mM Tris (pH 7.6), 0.1% Triton X-100, 150 mM NaCl, 1 mM CaCl₂, and 1 mg/mL BSA. The assay was conducted at 25° C. Experimental kinetic results were fit to a 1:1 binding model.
(§3) However, if addition of the sandwich antibody produces a binding event, then the sandwich antibody binds to a different epitope on human TREM2 than the load antibody and the two antibodies are categorized into different epitope bins.

human TREM2 on cells [4] = biological target: T2, human TREM2 on cells; test: cell-based or functional assay
[5] = biological target: T1, recombinant soluble human TREM2 protein …; test: Octet BLI binning; competitor: load Ab 24A10
Procedure: as §2, §3

human TREM2 on cells [6] = biological target: T2, human TREM2 on cells; test: cell-based or functional assay; remark: listed apart in the source
[7] = biological target: T1, recombinant soluble human TREM2 protein …; test: Octet BLI binning; competitor: load Ab 10E3
In short: as §1

[8] = biological target: T1, recombinant soluble human TREM2 protein …; test: Octet BLI binning; competitor: load Ab 32E3
In short: as §1

[9] = biological target: T1, recombinant soluble human TREM2 protein …; test: Octet BLI binning; competitor: load Ab 6E7
Procedure: as §2, §3

[10] = biological target: T1, recombinant soluble human TREM2 protein …; test: Octet BLI binning; competitor: load Ab 13E7
Procedure: as §2, §3

[11] = biological target: T1, recombinant soluble human TREM2 protein …; test: Octet BLI binning; competitor: load Ab 26A10
Procedure: as §2, §3

[12] = biological target: T3, soluble human TREM2 protein (TREM2 …); test: ELISA, hybridoma supernatant on captured biotinylated TREM2 ECD-Fc
[13] = biological target: T1, recombinant soluble human TREM2 protein …; test: Octet BLI binning; competitor: load Ab 16B8
Procedure: as §2, §3

[14] = biological target: T1, recombinant soluble human TREM2 protein …; test: Octet BLI binning; competitor: load Ab 5E3
Procedure: as §2, §3

[15] = biological target: T1, recombinant soluble human TREM2 protein …; test: Octet BLI binning; competitor: load Ab 24F4
Procedure: as §2, §3

[16] = biological target: T1, recombinant soluble human TREM2 protein …; test: Octet BLI binning; competitor: load Ab 26C10
Procedure: as §2, §3

Row | sandwich binding signal [1] | sandwich binding signal [2] | sandwich binding signal [3] | Emax (% maximum activation compared to RnD antibody) (human TREM2 on cells [4]) | pSyk EC50, differentiated THP-1 cells (human TREM2 on cells [4]) | sandwich binding signal [5] | pSyk EC50 (human TREM2 on cells [6]) | sandwich binding signal [7] | sandwich binding signal [8] | sandwich binding signal [9] | sandwich binding signal [10] | sandwich binding signal [11] | OD 450 [12] | sandwich binding signal [13] | sandwich binding signal [14] | sandwich binding signal [15] | sandwich binding signal [16] | Binder
1 | 0.317 | 0.273 | 0.303 | 456% | 1 nM | 0.38 | 0.4 nM | -0.024 | 0.007 | -0.012 | -0.019 | 0.367 | 0.55 OD450 | 0.33 | 0.415 | -0.002 | 0.348 | 10E3 (antibody, human IgG2, V domains shown, human IgG2 from hybridoma) VH: EVQLVQSGAEVKKPGESLMISCKGSGYSFTNYWIGWVRQMPGKGLEWMGIIYPGDSDTRYSPSFQGQVTISADKSISTAYLQWSSLKASDTAMYFCARRRQGIWGDALDIWGQGTLVTVSS VL: EIVMTQSPATLSVSPGERATLSCRASQSVSSNLAWFQQKPGQAPRLLIYGASTRATGIPARFSVSGSGTEFTLTISSLQSEDFAFYYCLQDNNWPPTFGPGTKVDIK
2 | 0.338 | 0.278 | 0.303 | 460% | 0.462 nM | 0.383 | 0.4 nM | -0.019 | 0.01 | -0.01 | -0.017 | 0.371 | 0.73 OD450 | 0.329 | 0.428 | -0.002 | 0.369 | 13E7 (antibody, human IgG2, V domains shown, human IgG2 from hybridoma) VH: EVQLVQSGAEVKKPGESLMISCKGSGYSFTSYWIGWVRQMPGKGLEWMGIIYPGDSDTRYSPSFQGQVTISADKSISTAYLQWSSLKASDTAMYFCARRRQGIWGDALDFWGQGTLVTVSS VL: EIVMTQSPATLSVSPGERATLSCRASQSVSSNLAWFQQKPGQAPRLLIYGASTRATGIPARFSVSGSGTEFTLTISSLQSEDFAVYYCLQDNNWPPTFGPGTKVDIK
3 | 0.412 | 0.371 | 0.434 | 273% | 0.899 nM | 0.499 | 0.29 nM | 0.051 | 0.079 | 0.009 | 0.051 | 0.475 | 3.17 OD450 | 0.429 | 0.565 | 0.054 | 0.472 | 6E7 (antibody, human IgG2, V domains shown, human IgG2 from hybridoma) VH: EVQLVQSGAEVKKPGESLKISCKGSGYSFTSYWIAWVRQMPGKGLEWMGIIYPGDSDTRYSPSFQGQVTISADKSISTAYLQWSSLKASDTAMYFCARQRTFYYDSSDYFDYWGQGTLVTVSS VL: DIQMTQSPSSVSASVGDRVTITCRASQGISSWLAWYQQKPGKAPKLLIYAASSLQNGVPSRFSGSGSGTDFTLTISSLQPEDFATYFCQQADSFPRTFGQGTKLEIK
4 | 0.328 | 0.38 | -0.055 | 195% | 0.594 nM | 0.441 | 0.24 nM | 0.222 | 0.338 | 0.514 | 0.259 | -0.052 | 3.88 OD450 | -0.047 | -0.165 | 0.434 | -0.073 | 5E3 (antibody, human IgG2, V domains shown, human IgG2 from hybridoma) VH: QVQLVQSGAEVKKPGASVKVSCKASGYTFTGYYIHWVRQAPGLGLEWMGWINPYSGGTTSAQKFQGRVTMTRDTSISSAYMELSRLRSDDTAVYYCARDGGYLALYGTDVWGQGTTVTVSS VL: DIQMTQSPSSLSASVGDRVTITCRASQGISNYLAWFQQKPGKAPKSLIYAASSLQSGVPSKFSGSGSGTDFTLTISSLQPEDFATYYCQQYSTYPFTFGPGTKVDIK
